In article PMC4066765, “Insights into how Spt5 functions in transcription elongation and repressing transcription coupled DNA repair” (Nucleic Acids Research, 2014):

Molecular target: T1, Rpb1, largest subunit of RNA polymerase II (S. cerevisiae, UniProt P04050 1-1733)
T1 construct: Rpb1, largest subunit of RNA polymerase II, S. cerevisiae; detected and immunoprecipitated with antibody 8WG16; Stands in the cell as part of the 12-subunit RNAP II; in the co-IP it is the bait (8WG16); also called RNAP II; core RNAP II (immunoprecipitated through Rpb1); source: endogenous, S. cerevisiae (BJ5465 derivatives); in living cells (cross-linking) and in solubilised chromatin fraction …
T1 sequence (P04050 whole entry): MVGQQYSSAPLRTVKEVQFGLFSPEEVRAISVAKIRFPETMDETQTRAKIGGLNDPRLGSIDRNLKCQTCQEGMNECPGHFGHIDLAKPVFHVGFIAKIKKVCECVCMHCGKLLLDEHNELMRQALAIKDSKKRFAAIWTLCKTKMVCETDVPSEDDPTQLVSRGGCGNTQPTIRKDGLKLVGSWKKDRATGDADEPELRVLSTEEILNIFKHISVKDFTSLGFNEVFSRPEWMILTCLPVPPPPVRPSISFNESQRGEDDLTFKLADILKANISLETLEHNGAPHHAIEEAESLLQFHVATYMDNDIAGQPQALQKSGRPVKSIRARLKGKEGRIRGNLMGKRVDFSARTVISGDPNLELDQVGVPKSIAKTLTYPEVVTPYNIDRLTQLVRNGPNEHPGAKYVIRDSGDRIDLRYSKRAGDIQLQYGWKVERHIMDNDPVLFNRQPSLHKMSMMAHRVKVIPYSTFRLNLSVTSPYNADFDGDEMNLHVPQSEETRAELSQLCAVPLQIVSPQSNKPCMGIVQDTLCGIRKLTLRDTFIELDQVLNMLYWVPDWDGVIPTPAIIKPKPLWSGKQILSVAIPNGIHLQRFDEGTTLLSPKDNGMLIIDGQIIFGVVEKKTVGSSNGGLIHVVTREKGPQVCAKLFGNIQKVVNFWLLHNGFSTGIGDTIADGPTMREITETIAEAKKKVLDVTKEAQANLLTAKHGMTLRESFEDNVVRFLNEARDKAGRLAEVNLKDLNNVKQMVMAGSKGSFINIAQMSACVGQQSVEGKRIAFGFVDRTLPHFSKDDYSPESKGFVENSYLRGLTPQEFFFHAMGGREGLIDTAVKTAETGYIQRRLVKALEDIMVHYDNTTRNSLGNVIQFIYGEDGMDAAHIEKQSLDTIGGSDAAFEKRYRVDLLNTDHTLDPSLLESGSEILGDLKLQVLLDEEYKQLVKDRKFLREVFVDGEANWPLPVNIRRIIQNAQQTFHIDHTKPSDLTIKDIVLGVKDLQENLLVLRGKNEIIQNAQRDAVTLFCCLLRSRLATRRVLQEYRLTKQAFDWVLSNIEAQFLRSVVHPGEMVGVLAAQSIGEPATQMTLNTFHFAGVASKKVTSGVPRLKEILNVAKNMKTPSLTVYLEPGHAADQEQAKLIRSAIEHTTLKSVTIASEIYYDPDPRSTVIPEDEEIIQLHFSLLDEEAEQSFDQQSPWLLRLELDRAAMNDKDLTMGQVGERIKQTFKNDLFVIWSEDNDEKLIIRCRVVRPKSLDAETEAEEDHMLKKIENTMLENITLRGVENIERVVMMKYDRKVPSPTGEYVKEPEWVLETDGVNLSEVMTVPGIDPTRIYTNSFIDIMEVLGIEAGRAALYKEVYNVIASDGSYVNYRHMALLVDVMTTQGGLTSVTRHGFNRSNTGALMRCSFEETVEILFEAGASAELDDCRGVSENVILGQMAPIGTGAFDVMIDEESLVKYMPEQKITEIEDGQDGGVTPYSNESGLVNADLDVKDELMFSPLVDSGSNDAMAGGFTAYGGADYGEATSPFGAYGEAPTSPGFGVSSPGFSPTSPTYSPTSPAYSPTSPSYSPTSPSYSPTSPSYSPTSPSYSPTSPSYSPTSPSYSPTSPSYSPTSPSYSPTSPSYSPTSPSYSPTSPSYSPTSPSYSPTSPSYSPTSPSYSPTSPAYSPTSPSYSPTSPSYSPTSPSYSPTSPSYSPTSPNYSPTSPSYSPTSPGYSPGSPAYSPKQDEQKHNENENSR
Experiment: co-IP; chromatin fraction of log phase yeast cells solubilised by sonication in 50 mM HEPES pH 7.5, 140 mM NaCl, 1% Triton X-100, 0.1% sodium deoxycholate, 1 mM EDTA, 0.1% SDS; immunoprecipitated with 4 μg anti-Rpb1 8WG16; blots with 8WG16, 2Y14 and anti-Myc; cells expressing full-length, KOW4-deleted or KOW4-5-deleted Spt5
Conditions: partners not purified

B1: Rpb4 (endogenous) (natural protein, S. cerevisiae, UniProt P20433 1-221, looked up)
chain: MNVSTSTFQTRRRRLKKVEEEENAATLQLGQEFQLKQINHQGEEEELIALNLSEARLVIKEALVERRRAFKRSQKKHKKKHLKHENANDETTAVEDEDDDLDEDDVNADDDDFMHSETREKELESIDVLLEQTTGGNNKDLKNTMQYLTNFSRFRDQETVGAVIQLLKSTGLHPFEVAQLGSLACDTADEAKTLIPSLNNKISDDELERILKELSNLETLY
notes: Rpb4, subunit of RNA polymerase II, S. cerevisiae; detected with antibody 2Y14; source: endogenous, S. cerevisiae (BJ5465 derivatives), in solubilised chromatin fraction
fold reduction of co-immunoprecipitated Rpb4 in cells with KOW4-5-deleted Spt5 against cells with full-length Spt5: > 2 fold
